Measurements taken from patent publication US6468532 (Genentech, dated 2002).

T1: recombinant human IL-8, (ser-IL-8)72 (human, UniProt P10145 28-99)
T1 sequence (looked up): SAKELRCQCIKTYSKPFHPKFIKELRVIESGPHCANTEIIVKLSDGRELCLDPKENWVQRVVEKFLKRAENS

T2: rabbit IL-8 (rabbit, UniProt P19874 23-101, limits assumed)
T2 sequence (looked up): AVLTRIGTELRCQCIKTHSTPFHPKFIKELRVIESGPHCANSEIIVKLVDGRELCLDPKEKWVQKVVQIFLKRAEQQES

T3: rhesus IL-8 (rhesus, UniProt P67813 23-101, limits assumed)
T3 sequence (looked up): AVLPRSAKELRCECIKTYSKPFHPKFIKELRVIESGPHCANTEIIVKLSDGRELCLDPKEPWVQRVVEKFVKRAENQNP


What was measured:
Assay in all cases: cell-based or functional assay
[1] = molecular target: T1, recombinant human IL-8, (ser-IL-8)72
[2] = molecular target: T2, rabbit IL-8
[3] = molecular target: human monomeric IL-8 (human)
[4] = molecular target: T3, rhesus IL-8

| Binder | average IC50, human IL-8 mediated neutrophil chemotaxis [1] [nM] | average IC50, IL-8 mediated neutrophil chemotaxis [2] [nM] | average IC50, IL-8 mediated neutrophil chemotaxis [3] [nM] | IC50, IL-8 mediated neutrophil chemotaxis [4] [nM] | IC50, IL-8 mediated PMN chemotaxis [1] [nM] | further results |
| --- | --- | --- | --- | --- | --- | --- |
| 6G4V11N35A F(ab')2 (GCN4 leucine zipper construct) (other) light: DIQMTQSPSSLSASVGDRVTITCRSSQSLVHGIGATYLHWYQQKPGKAPKLLIYKVSNRFSGVPSRFSGSGSGTDFTLTISSLQPEDFATYYCSQSTHVPLTFGQGTKVEIKRTVAAPSVFIFPPSDEQLKSGTASVVCLLNNFYPREAKVQWKVDNALQSGNSQESVTEQDSKDSTYSLSSTLTLSKADYEKHKVYACEVTHQGLSSPVTKSFNRGEC heavy: not shown | 1.5 | 4 | 1 |  |  |  |
| humanized 6G425 F(ab)-9 (humanized 6G4V11 Fab) (Fab, V domains shown) VH: EVQLVQSGGGLVQPGGSLRLSCAASGYSFSSHYMHWVRQAPGKGLEWVGYIDPSNGETTYNQKFKGRFTLSRDNSKNTAYLQMNSLRAEDTAVYYCARGDYRYNGDWFFDVWGQGTLVTVSS VL: DIQMTQSPSSLSASVGDRVTITCRSSQSLVHGIGNTYLHWYQQKPGKAPKLLIYKVSNRFSGVPSRFSGSGSGTDFTLTISSLQPEDFATYYCSQSTHVPLTFGQGTKVEIKR |  |  |  | ~22 |  | IC50, IL-8 mediated neutrophil chemotaxis [3]: ~15 nM |
| 6G4V11N35A Fab' modified with 40 kD linear PEG-maleimide (Fab, V domains shown, 40 kD linear methoxy-PEG-maleimide on the free cysteine in the hinge region) VH: EVQLVQSGGGLVQPGGSLRLSCAASGYSFSSHYMHWVRQAPGKGLEWVGYIDPSNGETTYNQKFKGRFTLSRDNSKNTAYLQMNSLRAEDTAVYYCARGDYRYNGDWFFDVWGQGTLVTVSS VL: DIQMTQSPSSLSASVGDRVTITCRSSQSLVHGIGATYLHWYQQKPGKAPKLLIYKVSNRFSGVPSRFSGSGSGTDFTLTISSLQPEDFATYYCSQSTHVPLTFGQGTKVEIKR |  |  |  |  | 3.7 |  |
| 6G4V11N35A Fab (Fab, V domains shown) VH: EVQLVQSGGGLVQPGGSLRLSCAASGYSFSSHYMHWVRQAPGKGLEWVGYIDPSNGETTYNQKFKGRFTLSRDNSKNTAYLQMNSLRAEDTAVYYCARGDYRYNGDWFFDVWGQGTLVTVSS VL: DIQMTQSPSSLSASVGDRVTITCRSSQSLVHGIGATYLHWYQQKPGKAPKLLIYKVSNRFSGVPSRFSGSGSGTDFTLTISSLQPEDFATYYCSQSTHVPLTFGQGTKVEIKR | 2.7 | 5 | 1 |  | 0.8 |  |
| full length 6G4V11N35A IgG1 (antibody, V domains shown, not shown: a dimerising Fc or GST) VH: EVQLVQSGGGLVQPGGSLRLSCAASGYSFSSHYMHWVRQAPGKGLEWVGYIDPSNGETTYNQKFKGRFTLSRDNSKNTAYLQMNSLRAEDTAVYYCARGDYRYNGDWFFDVWGQGTLVTVSS VL: DIQMTQSPSSLSASVGDRVTITCRSSQSLVHGIGATYLHWYQQKPGKAPKLLIYKVSNRFSGVPSRFSGSGSGTDFTLTISSLQPEDFATYYCSQSTHVPLTFGQGTKVEIKR |  |  |  |  |  | IC50, IL-8 mediated human neutrophil chemotaxis [1]: 4 nM; IC50, IL-8 mediated human neutrophil chemotaxis [2]: 4 nM |
| humanized 6G425 F(ab)-8 (Fab, V domains shown) VH: EVQLVESGGGLVQPGGSLRLSCAASGYSFSSHYMHWVKQAPGKGLEWVGYIDPSNGETTYNQKFKGRFTLSRDNSKNTAYLQMNSLRAEDTAVYYCARGDYRYNGDWFFDVWGQGTLVTVSS VL: DIQMTQSPSSLSASVGDRVTITCRSSQSLVHGIGNTYLHWYQQKPGKAPKLLIYKVSNRFSGVPSRFSGSGSGTDFTLTISSLQPEDFATYYCSQSTHVPLTFGQGTKVEIKR |  |  |  | 10 |  | IC50, IL-8 mediated neutrophil chemotaxis [1]: 12 nM |
